Experimental data: article PMC8166883

Legend:
[1] = target: FLAG-tagged human tumor necrosis factor α (FLAG-hTNFα) (human) (UniProt P01375); assay: SPR
[2] = target: FLAG-tagged human vascular endothelial growth factor-A (FLAG-hVEGF-A) (human) (UniProt P15692); assay: SPR
FLAG-tagged human vascular endothelial growth factor-A (FLAG-hVEGF-A) (human), sequence (P15692 other isoform, or with tags, fused parts or gaps): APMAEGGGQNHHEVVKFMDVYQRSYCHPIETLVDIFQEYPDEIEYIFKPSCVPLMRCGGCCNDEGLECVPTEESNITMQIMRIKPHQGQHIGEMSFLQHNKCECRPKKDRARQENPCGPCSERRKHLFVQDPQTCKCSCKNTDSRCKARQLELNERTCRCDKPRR

FLAG-tagged human tumor necrosis factor α (FLAG-hTNFα) (human), sequence (P01375 whole entry): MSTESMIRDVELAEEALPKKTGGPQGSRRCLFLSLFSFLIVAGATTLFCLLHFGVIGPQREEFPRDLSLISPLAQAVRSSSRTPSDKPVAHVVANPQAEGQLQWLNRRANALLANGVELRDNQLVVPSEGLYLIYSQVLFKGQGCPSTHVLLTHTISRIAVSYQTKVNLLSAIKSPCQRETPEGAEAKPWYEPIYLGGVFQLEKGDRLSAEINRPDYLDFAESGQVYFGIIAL

With adalimumab as the substance, how does the Kd [1] read?
The Kd was 0.41 nM.

What about the koff [1] of the same substance?
Its koff is 0.00036 s⁻¹.

Which results are given for bevacizumab?
Kd [2]: 0.341 nM; koff [2]: 0.000105 s⁻¹
